Results reported in the DeepSol protein solubility set.

Assay: soluble on expression in E. coli; label from the status in PepcDB or PDB records

| Sequence | soluble on expression in E. coli |
| --- | --- |
| MGLRPVSYTDSSVTPSVDGSIVLTAASVQSMPDSEESRLYGDDATYLAEGGRRQCPYTSNGPTFMETASFKKKRSKSADIWREDSLEFSLSDLSQEHLTSNEEILGSAEEKDCEEARGMETEASPRQLSTCQRANSLGDLYAQKNSGVKANGGPRNRFSSYCRNLVSDIPDLAKHKMPPAAAEETPPYSNYNTLPCRKSHCLSEGATNPQISLSKSMQGRRAKTTQDVNTGEGSEFADSGIEGATTDTDLLSRRSNATNSSYSPPTGRAFVGSDSGSSSTGDAARQGVYENFRRELEMSTTNSESLEEAGSAHSDEQSSGTLSSPGQSDILLTAAQGTVRKAGALAVKNFLVHKKNKKVESATRRKWKHYWVSLKGCTLFFYETDGRSGIDHNSVPKHAVWVENSIVQAVPEHPKKDFVFCLSNSLGDAFLFQTTSQTELENWITAIHSACAAAVARHHHKEDTLRLLKSEIKKLEQKIDMDEKMKKMGEMQLSSVTDSKKKKTILDQIFVWEQNLEQFQMDLFRFRCYLASLQGGELPNPKRLLAFASRPTKVAMGRLGIFSVSSFHALVAARTGEIGVRRRTQAMSRSASKRRSRFSSLWGLDTTSKKKQGRPTINQVFGEGTDAVKRSLEGIFDDTVPDGKREKEVVLPSVHQHNPDCDIWVHEYFTPSWFCLPNNQPALTVVRPGDTARDTLELICKTHQLDHSAHYLRLKFLMENRVQFYIPQPEEDIYELLYKEIEICPKVTQNIHIEKSDAAADNYGFLLSSVDEDGIRRLYVNSVKETGLASKKGLKAGDEILEINNRAAGTLNSSMLKDFLSQPSLGLLVRTYPEPEGGVELLENPPHRVDGPVDLGESPLAFLTSNPGHSLSSEQGSSAETAPEEGEGPDLESSDETDHSSKSTEQVAAFCRSLHEMSPSDSSPSPQDATSPQLATTRQLSDADKLRKVICELLETERTYVKDLNCLMERYLKPLQKETFLTQDELDVLFGNLTEMVEFQVEFLKTLEDGVRLVPDLEKLEKVDQFKKVLFSLGGSFLYYADRFKLYSAFCASHTKVPKVLVKAKTDTAFKAFLDAQNPRQQHSSTLESYLIKPIQRVLKYPLLLRELFALTDAESEEHYHLDVAIKTMNKVASHINEMQKIHEEFGAVFDQLIAEQTGEKKEVADLSMGDLLLHTSVIWLNPPASLGKWKKEPELAAFVFKTAVVLVYKDGSKQKKKLVGSHRLSIYEEWDPFRFRHMIPTEALQVRALPSADAEANAVCEIVHVKSESEGRPERVFHLCCSSPESRKDFLKSVHSILRDKHRRQLLKTESLPSAQQYVPFGGKRLCALKGARPAMSRAVSAPSKSLGRRRRRLARNRFTIDSDAISASSPEKEPQQPAGGGDTDRWVEEQFDLAQYEEQDDIKETDILSDDDEFCESLKGASVDRDLQEQLQAASISQRARGRRTLDSHASRMTQLKKQAALSGINGGLESASEEVIWVRREDFAPSRKLNTEI | soluble |
| MGLSDWELAAARAAIARGLDEDLRYGPDVTTLATVPASATTTASLVTREAGVVAGLDVALLTLNEVLGTNGYRVLDRVEDGARVPPGEALMTLEAQTRGLLTAERTMLNLVGHLSGIATATAAWVDAVRGTKAKIRDTRKTLPGLRALQKYAVRTGGGVNHRLGLGDAALIKDNHVAAAGSVVDALRAVRNAAPDLPCEVEVDSLEQLDAVLPEKPELILLDNFAVWQTQTAVQRRDSRAPTVMLESSGGLSLQTAATYAETGVDYLAVGALTHSVRVLDIGLDM | soluble |
| MGLSVVILAAGKGSRMNSNKPKVLQTLAAKTLIEHVVSSVEKLNPDNIVVVTGHLKEQVEDALQGRNITFVYQQQQLGTGHAVLQALPYLKEQKVLILYGDVPLISTEVLENLVDTTNDDDLGVLTAFVENPQGLGRIVRDKFGAVTEIVEEKDANDIQRQIKEINTGIYCVHKNLLQKWLPEIKANNVQKEYYLTDIITFAKADHVSINVTHPINEFEILGVNDRTQLASLERVWQRNVAEKIMAKGVSIADPNRFDVRGNLDVGKDCWIDINVIIKGNVKLGNNVVIGANCILKNCIIEDNVRIKSNSMVDGSIIREGAIVGPFARVRPECDVKEGAVIGNFVEAKKTILGKGSKASHLTYLGDSEIGANCNIGAGVITCNYDGVNKHKTVIGDYAFIGSDSQLIAPVNIGQGATVGAGSTIVKDVPADNLAISRARQRHIDTWQRSVKKTDK | not soluble |
| MGLVTSILGRREYRLLQNSVTKKHLCKFMGVEFDYNDLDEITEIRVGENIFDTFESYARFAMKDTMKSIFAECKAMKTCLARIEREKQTEASMNHKIRQCYITLRRLCQLYYKFYQDLEKLKIPEHAWNVPLVKKAEKSIVVLDHAIYKFKAKGNLDVKKFREEVSHQYNIIEEVLKQFKSMDEGEYVEMRMKEEMKTEEA | not soluble |
| MGNCNARPATFKPKNLPMEYPKKYAMYPTRRRMRASERRTYKRDCKNLLESVAGENPFEGDEETANNYTEAIFSISIKAKVLKTYMDLIESSINEECPVNGHIQLFCNEINNLSHLYEVFFRKSIVSVDTRVEERKEIARAAYRDIKNLTIIIYLNKERSKTLLQSVMMHTEFQTHQAEKLVEHYEATFSPILKEVLPDPNAPRIHRTPTRAQIIAFWEEVRREKESGTLGTPF | not soluble |
| MGNQQCNWYGTLYPLCVTTTNGWGWEDQRSCIARSTCAAQPAPFGIVGSG | soluble |
| MGPGTTVRWRRRVSGWRRAGCAALIAGAVALPLSGAARPEIPAPPPAALAAPTAATLDKAYAANRANAAEASRMAADHGDRHRAAADRAMADRSRRLLAFDGRGTGLATEVFGDLARADRVAVLVPGSDTGLDTYGRFRATALALHRQLVAEAPAGTRTAVVAWLGYETPGTVSTTVATTDRADRAAPELRALVGDLRRITGPGTRLALLCHSYGSVVCARAADGLEVADIALVGSPGTGADTAAGLHSEARVWAGRGAEDWVEHVPHVSADLFGTTVGFGTDPVSPAFGARVFDAGDGGHSDYFDPGSRSLTNLARIALGETTEVTHALEHHHHHH | not soluble |
| MGQCRSANAEDAQEFSDVERAIETLIKNFHQYSVEGGKETLTPSELRDLVTQQLPHLMPSNCGLEEKIANLGSCNDSKLEFRSFWELIGEAAKSVKLERPVRGH | soluble |
| MGQDRGFGFPTQRLCSLSSLALSHLGKQDLNLVSKTCGDTTDMFSTRGSYQVSTQVSQSYFDGYCGWVHGSSHLQQQFLPPQNQCMKQVPLQVDGVISKAEEQCSQKRFLVFDQSGDQTTLLLASDIRKSFETLKQHACPDMKEELQRSNKDLFVCHGMQGNSEPDLKEDSEELNALLYSEDESGYCSEEDEVTSADHSPSIVVSGREDQKTFLGSYGQPLNAKKRKILETSNESMRDAESSCGSCDNTRISFLKRSKLSSNKIGEEKIFETVSLLRSVVPGEELVDPILVIDRAIDYLKSLKMEAKNREA | soluble |
| MGQSFSSSFNAKQTSSSTPQKSTKTPTCSDPRSPSQDIERTPIQVKTVENDENGSSESSTTKADKPRKTSLRQKMFARKKNMNSETDE | not soluble |
| MGRCYNNIVIDASIEAVWQQIGNFHDMSWAKGVITSLVKVGPASGTEVGAKRILNDAIHETLVSLDSSNYTFTYSIDDGPDAIAKSAVDNYLGMVNLSESSTGVLVEWSSSFTSDNEKAVTEFCDPIYMALLGALKNSLRLEHHHHHH | soluble |
| MGRFAVYEDPFVTKLMNTIGSMTFDGLGFTLLELYRDLVISADNYFMNYVNYGETPHDVGEESIEDPIYGASYPYWWTDLGPTLVLMLYRDYVFTSNREILEKNYNKIKEIIDWLIRKDMDNDCIPDSKGGYDNSYDGTHMYGASSYIASMFLSALTAFIKMSEILDVKIDDKYYRFLECGKKTFNSLWNGKYFILWKKNDEENTSCLNSQLLGQFWCDILGLPPITDHDKINTALRSIYELNFKASKYCLTNAVREDGSVDSSTAQLRSCWPRVSFAVAAHMILRGMVKEGIEVAKREWETIKELNPFDQSSRIDAIDGKYVGLMSYIGSTSVWLLKLALDKIRLEHHHHHH | soluble |
| MGRHLRLPSGTKLIVARNQGEVNFLKGFRNRYNYAYRKDGKGTFALIKGNPPEEELQLIADIIARYSKNEPAKVGIHLNGKEIELIGNPPSDEFLEQFKIYAKKEVGHGR | not soluble |
| MGRKWNNIKEKKASKDANTSRIYAKFGREIYVAAKQGEPDPESNQALKVVLERAKTYSVPKNIIERAIEKAKGGAEENYDELRYEGFGPNGSMIIVDALTNNVNRTAPEVRAAFGKNGGNMGVSGSVAYMFDATAVIVVEGKTADEALEILMEADVDVRDILEEDDSAKSCYAEPDQFHAVQEAFKNAGVEEFTVAELQMLAQSEVTLPDDAKEQFEKLIDALEDLEDVQQVYHNVDLGELEHHHHHH | soluble |
| MGRLDGKVIILTAAAQGIGQAAALAFAREGAKVIATDINESKLQELEKYPGIQTRVLDVTKKKQIDQFASEVERLDVLFNVAGFVHHGTVLDCEEKDWDFSMNLNVRSMYLMIKAFLPKMLAQKSGNIINMSSVASSVKGVVNRCVYSTTKAAVIGLTKSVAADFIQQGIRCNCVCPGTVDTPSLQERIQARGNPEEARNDFLKRQKTGRFATAEEIAMLCVYLASDESAYVTGNPVIIDGGWSL | not soluble |
| MGRSHHHHHHGSLVPRGSEQGSNVNHLIKVTDQSITEGYDDSDGIIKAHDAENLIYDVTFEVDDKVKSGDTMTVNIDKNTVPSDLTDSFAIPKIKDNSGEIIATGTYDNTNKQITYTFTDYVDKYENIKAHLKLTSYIDKSKVPNNNTKLDVEYKTALSSVNKTITVEYQKPNENRTANLQSMFTNIDTKNHTVEQTIYINPLRYSAKETNVNISGNGDEGSTIIDDSTIIKVYKVGDNQNLPDSNRIYDYSEYEDVTNDDYAQLGNNNDVNINFGNIDSPYIIKVISKYDPNKDDYTTIQQTVTMQTTINEYTGEFRTASYDNTIAFSTSSGQGQGDLPPEK | soluble |
| MGRTSKDKRDVYYRLAKENGWRARSAFKLLQLDKEFQLFQGVTRAVDLCAAPGSWSQVLSQKIGGQGSGHVVAVDLQAMAPLPGVVQIQGDITQLSTAKEIIQHFKGCPADLVVCDGAPDVTGLHDVDEYMQAQLLLAALNIATHVLKPGGCFVAKIFRGRDVTLLYSQLQVFFSSVLCAKPRSSRNSSIEAFAVCQGYDPPEGFIPDLSKPLLDHSYDPDFNQLDGPTRIIVPFVTCGDLSSYDSDRSYPLDLEGGSEYKYTPPTQPPISPPYQEACTLKRKGQLAKEIRPQDCPISRVDTFPQPLAAPQCHTLLAPEMEDNEMSCSP | soluble |
| MGSDKIHHHHHHAAIIFAFLYFTNNHKTDLESTISEQWNKITTFFSNDFSLPDTMSKLSTDNYKHEAGSRWSQNSASVYIASTDKTIVKAYQTALANWNATGSFTFNIISDKASADITAKDYSDVNSQAAGLAETETNAVTNRMSHVDVKLNRYYLLDASYGYSFDRIVHTAEHELGHAIGLDHDDKETSVMASSGSYNGIQTVDITAVKKLYAN | not soluble |
| MGSDKIHHHHHHACTGSSQKEKPACVNTPVEPFTGLPVFDLQEQYPEKEIILQDIADVRYVVLETGDSSLVGIRPILMTDSFLVTVNKKSDVIFFDKSGKYLHSFNHTSMSGEEYGDIVSGYCIDEKAREIFIYDGLQSRIQVYGYGGAYRRTLKLPQNRMFASSIFEYDENFLFGEDYRLVDSQIGKYPVNKTPYYKISKKDGKLTSIPITVKERIRDGLSYTVGDGAFGYVSLLMSPVARFGSDILIADYSLDTAYVYRDDHLIPLTVRRNHTSENNIPILATVDVMTGRYLLWYTIVKDIDVKNNRVSDPVSYLYDRFTNEYCRVDLVNRDVVSATNIPAFQMRLSANYHVVPENYAIQYYPAEELIELNGQGKLKGELKEIASKLNDEDNPVLLIAKFKE | not soluble |
| MGSDKIHHHHHHADDDKPIQVSQMPQKAQQFIKQHFAGSNIAMAKVESDFLQKSYDVIFTDGNKVEFDKKGNWTEVNCKFSVVPQGIIPSPIQKYTATNYPDAKVLKIERDKTDYEVKLSNGWELKFDSKFNLIDIDN | not soluble |
